{
  "source": "the nanobody polyreactivity screen of Harvey et al. (2022)",
  "data": [
    {"assay": "yeast display, Sf9 membrane polyspecificity reagent, FACS + sequencing; frameworks hold sequencing errors", "how_it_was_run": "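A nanobody's polyreactivity label depends on the gate it was sorted from. Yeast display cells were stained with 10% biotinylated, detergent-solubilized Sf9 membrane reagent for 1 hour at 4 °C, enriched on streptavidin microbeads and sorted by FACS. The low and high (top ~1%) gates were set on anti-HA fluorescence for expression and streptavidin fluorescence for reagent binding.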", "values": [
      {"sequence": "QVQLVESGGGLVQAGGSLRLSFAASGSTFRYNTRGWYRQAPGKEREVVATITWDTDSTYYADSVKGRFTISRDNAKNTVYLQMNSLKPEDTAVYYCAAETTWADKSYHYLQEYNYCGQGTQVTVSS", "polyreactivity (PSR sort gate)": "low polyreactivity"},
      {"sequence": "QVQLVESGGGLVQAGGSLRLSFAASGSTFTINAMGWYRPAPGKERELVAAINDGHDTYYADSVKGRFTISRDNAKNTVYLQMNSLKPEDTAVYFCAADIIYGYEVYTYTSDYWGQGTQVTVSS", "polyreactivity (PSR sort gate)": "low polyreactivity"},
      {"sequence": "QVQLVESGGGLVQAGGSLRLSFAASGSTFWLYPMGWYRQATAKDREFVATISSSTTYYADSVKGRFTISRDNAKNTVYLQMNCLKAEDTEVYYCAKQHGLTSGGSRTDYWGQGTQGTVSS", "polyreactivity (PSR sort gate)": "low polyreactivity"},
      {"sequence": "QVQLVESGGGLVQAGGSLRLSFAASGYTFAGNAMGWYRQAPGKERELVAVITYSGVSTYYADSVKGRFTISRDNAKNTVYLQMNSLKPEDTAVYYCNAVRERYASDYWGQGTQVTVSS", "polyreactivity (PSR sort gate)": "low polyreactivity"},
      {"sequence": "QVQLVESGGGLVQAGGSLRLSFADSGLILNFYAKSSYRQAPGKERELVAAISWNAGSTYYADSVKGRFTISREKSMNTGYVQMKSLKPEDTAVYYCAVLPGRYDKTASHYDYWGQGTQVTVSS", "polyreactivity (PSR sort gate)": "low polyreactivity"},
      {"sequence": "QVQLVESGGGLVQAGGSLRLSFADSGYNFPLYAMGWYIQAPGKERELVADINIGGASTYYADSVKGRFTISRDNAKNTFYLQMNSLKPEDTAVYSCAARDCYQRRQRRYDYWGQGTQVTVSS", "polyreactivity (PSR sort gate)": "low polyreactivity"},
      {"sequence": "QVQLVESGGGLVQAGGSLRLSFDASGFISGDNTMGWYRQAPGKERELVAAINSGGSTYYADSVKGRFTISRDNAKNTFYLQMNSLKPEDTAVYYCAADYSTWLRAYDFWGQGTQVTVSS", "polyreactivity (PSR sort gate)": "low polyreactivity"},
      {"sequence": "QVQLVESGGGLVQAGGSLRLSFSASGRTFPFYAMGWYRQEPGKERDLVAAITVSGGSTYYADSVKGRFTISRDNAKNTVYLQMNSLKPVDTAVYYCNAKRSDQSSKTFNYWGQGTQVTVSS", "polyreactivity (PSR sort gate)": "low polyreactivity"},
      {"sequence": "QVQLVESGGGLVQAGGSLRLSGAASGFIFVRYAMGWYRQAPGKERELVAAITRRGGSTHYADSVKGRFTISRDNAKNTVYLQMNSLTPEDTAVYYCAAGRQYYYLDRFPRVQGDYWGQGTQVTVSS", "polyreactivity (PSR sort gate)": "high polyreactivity"},
      {"sequence": "QVQLVESGGGLVQAGGSLRLSGAASGFISFPYAMGWDTQATGKERELVASITRSGGNTYYADSVKGRFTISRDNEKNTVYLQMNSLKPEDTAVYYCNAQIYTYRSGRGYSRMDYWGEGTQVTVSS", "polyreactivity (PSR sort gate)": "high polyreactivity"},
      {"sequence": "QVQLVESGGGLVQAGGSLRLSGAASGIIVPDYAMGWNKQAPGKERELVPDISFSAGSTYYADSVKGRFTISRDNAKNTVYLQMNSLKPDDTAVYVCAADQTSSYYDPWGDYWGQGTQVTVSS", "polyreactivity (PSR sort gate)": "low polyreactivity"},
      {"sequence": "QVQLVESGGGLVQAGGSLRLSGAASGRTFPYNTMGWYRQAPGKEWELVASITYTDGSTSYAYSVKGRFTISRDNAKNTVYLQMNCLKPEDTAVYYCAADYYAHQDYRFDYCGQGTQVTVSS", "polyreactivity (PSR sort gate)": "low polyreactivity"},
      {"sequence": "QVQLVESGGGLVQAGGSLRLSGAASGRTFYDYAMGWYRQAPGKERELVAAISWIDGSTYYADSVKGRFTISRDNAKNTVYLLMNSLKPEDTAVYYCAARRLVYYRKVKELDYWGQGTQVTVSS", "polyreactivity (PSR sort gate)": "high polyreactivity"},
      {"sequence": "QVQLVESGGGLVQAGGSLRLSGAASGSILWSYALGCYIQAPGKERELVAAIRSGGSTYYADSVKGRFTISRDNAKNTVYFQMNSLKPEDTAVLYCNATYAPLFEYDYWGQGTQVTVSS", "polyreactivity (PSR sort gate)": "low polyreactivity"},
      {"sequence": "QVQLVESGGGLVQAGGSLRLSIDASGRIFYPYVMGWYRQAPGQERELVAAISDSTGSTYYADSVKGRFTISRDNAKITVYLEMNSQKPEDTAVFYCAAGWFYATYWRFYYCGQGTQVTVSS", "polyreactivity (PSR sort gate)": "low polyreactivity"},
      {"sequence": "QVQLVESGGGLVQAGGSLRLSLLPPDSPSTTMLWDGIDRRLGKKGSWLPVFLPSGGTTYADSVKGRFTISRDNAKNTVYLQMNSLKPEDTAVYYCAASYYRTRWSWMYYWGQGTQVTLSS", "polyreactivity (PSR sort gate)": "low polyreactivity"},
      {"sequence": "QVQLVESGGGLVQAGGSLRLSRAASGATFYFNAMGWYSQAHGKERELVAGITYSGDSTYYADSVKGRFTLSRDNAKNPVYLQMNSLKPEDTAVYYCAADVDYDLDGDYWGQGTQVTVSS", "polyreactivity (PSR sort gate)": "low polyreactivity"},
      {"sequence": "QVQLVESGGGLVQAGGSLRLSSAASGFIFATYAMGWYRQAPGTERELVAAISQSGGGTYYADSVKGRFTISRDNAKNTVYLQMNSLKPEDTAVYYCAVDVSEWYHYDLYYWYYYWGQGTQVTVSS", "polyreactivity (PSR sort gate)": "high polyreactivity"},
      {"sequence": "QVQLVESGGGLVQAGGSLRLSSAASGFIFSTYAMGWYRQAPGKEREFVAAITRTGTRTYYADSVKGRFTISRDNAKNTVYLQMTSLKPEDTAVYYCAARAGVEAYGSRYGYWGQGTQGTVSS", "polyreactivity (PSR sort gate)": "high polyreactivity"},
      {"sequence": "QVQLVESGGGLVQAGGSLRLSSAASGFIFTYYAMGWYRQAPGKERELVAVITRGDSTYYADSVKGRFTISRDNAKNTVYLQMNSLKPEDTAVYYCAARGYFGWSGYSVPSTAYGYWGQGTQVTVSS", "polyreactivity (PSR sort gate)": "high polyreactivity"},
      {"sequence": "QVQLVESGGGLVQAGGSLRLSSAASGFTFRGYGMGWYRQAPAKERELVAAITSSGGSTYYADSVKGRFTISRDNAKNTVYLQMNSLKPEDTAVYYCAADRYTRYRYNYWGQGTQVTVSS", "polyreactivity (PSR sort gate)": "high polyreactivity"},
      {"sequence": "QVQLVESGGGLVQAGGSLRLSSAASGFTFVSYAMGWYRQAPGKERELVASISKRGGTTYYADSVKGRFTISRDNAKKTVFLQMNSLKPDDTAVYYCNARDTRRYVTYDSGYDYWGQGTQVTVSS", "polyreactivity (PSR sort gate)": "high polyreactivity"},
      {"sequence": "QVQLVESGGGLVQAGGSLRLSSAASGFTFYWYAMGWYRQAPGKEREFVAAIDQSGGSTYYADSVKGRFTISRDNAKNTVYLQMNSLKPEDTAVYYCAARYILWDGYSWTEFDYWGQGTQVTVSS", "polyreactivity (PSR sort gate)": "low polyreactivity"},
      {"sequence": "QVQLVESGGGLVQAGGSLRLSSAASGGIFSSYAMGWYRQAPGKERELVAAISGSGGRTYYADSVKGRFTISRDNAKNTVYLQMNSLKPEDTSVYYCAAYPVNRVDYRYDYWGQGTQVTVSS", "polyreactivity (PSR sort gate)": "high polyreactivity"},
      {"sequence": "QVQLVESGGGLVQAGGSLRLSSAASGGIFWYYTMGWYRQAPGKERELVAAISWSGGRTYYADSVKGRFTISRDNAKNTVYLQMNSLKPEDTAVYYCAANFRGVLGWYHYEYWGQGTQVTVSS", "polyreactivity (PSR sort gate)": "high polyreactivity"},
      {"sequence": "QVQLVESGGGLVQAGGSLRLSSAASGGSFKRYVMVWYRQAPGKERELVAAITWSGGSTYYADSVKGRFTISRDNAKNTVYLQMNSLKPEDTAVYYCNVVTRWVTAAGYDYWGQGTQVTVSS", "polyreactivity (PSR sort gate)": "high polyreactivity"},
      {"sequence": "QVQLVESGGGLVQAGGSLRLSSAASGGTFGGYTRRWSRQAPGKERELVAAITRRGSSTFYADSVKGRFTISRDNAKKTVYLQMNSLKPEDTAVYYCAARYIVYLRTQSERYNSYDYWAQGTQVTVSS", "polyreactivity (PSR sort gate)": "high polyreactivity"},
      {"sequence": "QVQLVESGGGLVQAGGSLRLSSAASGIFRWNTKGWYRQAPRKERELVATISWGGGTTYYADSVKGRFTISRDNAKNTVYLQMNSLKPEDTAVYYCAKVYAVRIGMRYSYWGHGTQVTVSS", "polyreactivity (PSR sort gate)": "low polyreactivity"},
      {"sequence": "QVQLVESGGGLVQAGGSLRLSSAASGITFYFNAMRWYRQATGKVSEFVAAISFSGGGTYYADSVKGRFTISRDNAKITDYLDMNSLKPADTAVYYCNADYGRGTLRSIYDYWGQGTQVTVTS", "polyreactivity (PSR sort gate)": "low polyreactivity"},
      {"sequence": "QVQLVESGGGLVQAGGSLRLSSAASGITIRYNDMGWYRQAPGKERELVAAITFSGGSTYYPDSVKGRFTISRDNAMNTVYLQMNSLKPEDTAVYYCAKLGSTSSRGNYDYWGQGTQVTVSS", "polyreactivity (PSR sort gate)": "low polyreactivity"},
      {"sequence": "QVQLVESGGGLVQAGGSLRLSSAASGITSYGYAMGWNRQAPGKERELVASISWTGGNTYADSVKGRFTISRDNAKNTVYLQMNSLFPEDTAVYYCNAGRSWDYWYGYDYWGQGTHVTVSS", "polyreactivity (PSR sort gate)": "low polyreactivity"},
      {"sequence": "QVQLVESGGGLVQAGGSLRLSSAASGITYYGYAMGWYRQAPGKERELVAAISKSGGSTHYADSVKGRFTISRDNAINTVYLQMYRLKPEDTAVYYCAAAYWTRLRRMDYWGQGTQVTVSS", "polyreactivity (PSR sort gate)": "low polyreactivity"},
      {"sequence": "QVQLVESGGGLVQAGGSLRLSSAASGLILYSYAMGWYRQAPGKERELVADISSGGITNYADSVKGRFTISRDNAKNTVYLQMNSLKPEDTAVYYCAADTRPVNYILYDYWGQGTQVTVSS", "polyreactivity (PSR sort gate)": "low polyreactivity"},
      {"sequence": "QVQLVESGGGLVQAGGSLRLSSAASGLTFAYYTMGWYRQAPGKERELVAAISRSGSGTYYADSVKGRFTISRDNAKNTVYLQMNSLKPEDTAVYYCATRYYLKFLDGYNYWGQGTQVTVSS", "polyreactivity (PSR sort gate)": "high polyreactivity"},
      {"sequence": "QVQLVESGGGLVQAGGSLRLSSAASGLTFESYAIGWYRQAPWKERELVAAISFSCGSTNYADAVKGRFTISRDNAKNTVYLQLNSLKPEDTAVYYCAAEYGSPRGTGYDSWGQGTQVTVSS", "polyreactivity (PSR sort gate)": "high polyreactivity"},
      {"sequence": "QVQLVESGGGLVQAGGSLRLSSAASGNIFVYYAKGLYRHAPGKERELVAAISKRGGSTYYADSVKGRFTISRDNAKNTVYLQMNSLKPEDTAVYYCAALGHVDDSIYDYWGQGTQLTVSS", "polyreactivity (PSR sort gate)": "high polyreactivity"},
      {"sequence": "QVQLVESGGGLVQAGGSLRLSSAASGRIFEGYAMGWYRQAPGKERELVAAISSGGSTYYADSVKGRFTISRDNAKNTVYLQMNSLKPEDTAVYYCNAAHSVVSHGPGAGLEMDYWGQGTQVTVSS", "polyreactivity (PSR sort gate)": "low polyreactivity"},
      {"sequence": "QVQLVESGGGLVQAGGSLRLSSAASGRIFGVYAMGWYRQAPGKERELVAAITRSGGSTYYADSVKGRFTISRDNAKNTDYLQMKSLKPEDTAVYYCNRDFRGLAYSDRYDYWGQVTQVTVSS", "polyreactivity (PSR sort gate)": "low polyreactivity"},
      {"sequence": "QVQLVESGGGLVQAGGSLRLSSAASGRIFHPYAMGWYRPAPGQERELVAAITNSGGITYADSVKGRFTISRGNAKNTVYLQMNSLKPEDTAVYYCNTATNRFHYKYRKPYDYWGQGTQVTVSS", "polyreactivity (PSR sort gate)": "low polyreactivity"},
      {"sequence": "QVQLVESGGGLVQAGGSLRLSSAASGRIFKRYTMGSYRQAPGKERELVAANTKRADRTNYADSVNGRFTISRDNAKNTVYLQMNSLKAVDTAVYYCNAEGQNDHPSNGYISYNYDYWGQGTQVTVSS", "polyreactivity (PSR sort gate)": "low polyreactivity"}
    ]}
  ]
}
